From patent US20250340591A1, “COMPOSITION FOR PREVENTING OR TREATING INFLAMMATORY BOWEL DISEASE CONTAINING NOVEL COMPOUND” (ANYGEN CO., LTD., priority 2021, published 2025)
Square brackets hold non-standard residues; d marks the D form. Ends that are not written are not given here. Peptide text beside a SMILES is read from it. * marks the point of attachment. His(Trt) = N[C@@H](Cc1cn(C(c2ccccc2)(c2ccccc2)c2ccccc2)cn1)C(=O)O; dHis(Trt) = N[C@H](Cc1cn(C(c2ccccc2)(c2ccccc2)c2ccccc2)cn1)C(=O)O; Biotin = O=C1N[C@H]2[C@H](CS[C@H]2CCCCC(=O)*)N1; 4‑chlorobenzhydryl = Clc1ccc(C(c2ccccc2)*)cc1; Bip = N[C@@H](Cc1ccc(-c2ccccc2)cc1)C(=O)O; dPhe(4-Br) = N[C@H](Cc1ccc(Br)cc1)C(=O)O; dPhe(4-Me) = Cc1ccc(C[C@@H](N)C(=O)O)cc1; Trt = c1ccc(C(c2ccccc2)(c2ccccc2)*)cc1; dPhe(4-F) = N[C@H](Cc1ccc(F)cc1)C(=O)O; Dmt = Cc1cc(O)cc(C)c1C[C@H](N)C(=O)O; Benzhydryl = c1ccc(C(c2ccccc2)*)cc1; Palmitoyl = CCCCCCCCCCCCCCCC(=O)*; Myristoyl = CCCCCCCCCCCCCC(=O)*; d3Pal = N[C@H](Cc1cccnc1)C(=O)O; Lauroyl = CCCCCCCCCCCC(=O)*; Decanoyl = CCCCCCCCCC(=O)*; Octanoyl = CCCCCCCC(=O)*; SO3H = O=S(=O)(O)*; Bn = c1ccc(C*)cc1

Target: T1, GPR39 (G protein coupled receptor 39) (UniProt O43194 1-453, limits assumed)
T1 sequence (looked up): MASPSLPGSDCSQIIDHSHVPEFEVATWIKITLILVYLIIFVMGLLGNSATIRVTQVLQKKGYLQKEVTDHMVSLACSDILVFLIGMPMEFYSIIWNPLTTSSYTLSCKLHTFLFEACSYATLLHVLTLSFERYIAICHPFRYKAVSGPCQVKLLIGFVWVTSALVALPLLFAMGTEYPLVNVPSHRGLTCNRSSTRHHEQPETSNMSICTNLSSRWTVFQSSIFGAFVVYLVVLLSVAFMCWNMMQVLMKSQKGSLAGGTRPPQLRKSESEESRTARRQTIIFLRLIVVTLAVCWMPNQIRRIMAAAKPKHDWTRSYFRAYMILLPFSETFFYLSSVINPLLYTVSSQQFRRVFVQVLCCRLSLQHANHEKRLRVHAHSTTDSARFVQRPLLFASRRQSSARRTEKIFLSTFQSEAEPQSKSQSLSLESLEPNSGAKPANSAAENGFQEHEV
Assay: cell-based or functional assay

Row | Molecule | EC50; SRE-luciferase reporter [nM] | ECmax; SRE-luciferase reporter
1 | H(Trt)K(Octanoyl)YY-OH [HKFY-48] | 330 | 14.4 -fold induction over basal
2 | [dH](Trt)K(Octanoyl)[dPhe(4-Me)]Y [HKFY-31] | 20 | 20.9 -fold induction over basal
3 | H(Trt)K(Palmitoyl)FY-OH [HKFY-27] | 560 | 20.4 -fold induction over basal
4 | H(Trt)K(Octanoyl)[dPhe(4-Br)]Y-OH [HKFY-29] | 310 | 26.8 -fold induction over basal
5 | H(Trt)K(Octanoyl)FYSHQQARF (not fully specified; printed as His(trt)-Lys(caprylic)-Phe-Tyr-Ser-His-Gln-Gln-Ala-Arg-Phe) [HKFY-40] | 1300 | 13.4 -fold induction over basal
6 | H(Benzhydryl)K(Octanoyl)[dPhe(4-Me)][Dmt] [HKFY-36] | 150 | 9.9 -fold induction over basal
7 | H(Trt)K(Octanoyl)FW [HKFY-46] | 260 | 20 -fold induction over basal
8 | H(Trt)K(Octanoyl)FYQNGARF (not fully specified (C-terminus)) [HKFY-41] | 9550 | 12.2 -fold induction over basal
9 | H(Trt)K(Lauroyl)FY-OH [HKFY-25] | 630 | 7.72 -fold induction over basal
10 | H(Bn)K(Octanoyl)FY [HKFY-3] | 4130 | 9.2 -fold induction over basal
11 | H(Trt)K(Octanoyl)FYW [HKFY-44] | 370 | 20 -fold induction over basal
12 | GSH(Trt)K(Octanoyl)FY [HKFY-37] | 1840 | 16 -fold induction over basal
13 | His(Trt)-Lys(Octanoyl)-Phe-OH [HKFY-49] | 320 | 18.3 -fold induction over basal
14 | [dH](Trt)K(Octanoyl)FY [HKFY-4] | 130 | 16.8 -fold induction over basal
15 | H(Trt)K(Octanoyl)FYQNQARF (also: C-terminal Phe amide in IUPAC name, not in sequence formula) [HKFY-43] | 1210 | 12.1 -fold induction over basal
16 | H(Trt)K(Octanoyl)FYHQQARF (not fully specified; printed as His(trt)-Lys(caprylic)-Phe-Tyr-His-Gln-Gln-Ala-Arg-Phe) [HKFY-42] | 1580 | 11.8 -fold induction over basal
17 | H(Benzhydryl)K(Octanoyl)[dPhe(4-Me)]Y(SO3H) [HKFY-35] | 280 | 18.9 -fold induction over basal
18 | H(4‑chlorobenzhydryl)K(Octanoyl)FY [HKFY-21] | 136000 | 18.3 -fold induction over basal
19 | H(Trt)K(Octanoyl)FYSDQQARF (not fully specified; printed as His(trt)-Lys(caprylic)-Phe-Tyr-Ser-Asp-Gln-Gln-Ala-Arg-Phe) [HKFY-38] | 3500 | 16.5 -fold induction over basal
20 | HK(Octanoyl)[dPhe(4-Me)]Y (not fully specified (residue 1)) [HKFY-32] | 2 | 21.5 -fold induction over basal
21 | H(Trt)K(Octanoyl)[dPhe(4-F)]Y-OH [HKFY-28] | 74 | 22.9 -fold induction over basal
22 | HK(Octanoyl)FY (not fully specified; also: His1 substituent: adamantan-1-yl or adamantanmethyl) [HKFY-23] | 2600 | 15 -fold induction over basal
23 | H(Trt)K(Myristoyl)FY-OH [HKFY-26] | 280 | 19.8 -fold induction over basal
24 | Biotin-H(Trt)K(Octanoyl)[Bip]Y [HKFY-45] | 140 | 21 -fold induction over basal
25 | H(Trt)K(Octanoyl)YF-OH [HKFY-47] | 300 | 13 -fold induction over basal
26 | H(4‑methylbenzhydryl)K(Octanoyl)FY [HKFY-22] | 59800 | 21.3 -fold induction over basal
27 | H(Trt)K(Octanoyl)[dPhe(4-Me)]Y [HKFY-30] | 8 | 23.9 -fold induction over basal
28 | H(Benzhydryl)K(Octanoyl)FY [HKFY-33] | 150 | 20 -fold induction over basal
29 | H(Trt)K(Octanoyl)FYSQNGARF (also: C-terminal amide in IUPAC name, not in sequence formula, .39 lacks Gln-Asn) [HKFY-39] | – | 12.1 -fold induction over basal
30 | H(Trt)K(Decanoyl)FY-OH [HKFY-24] | 240 | 7.03 -fold induction over basal

Target: T2, GPR39 (Homo sapiens, UniProt O43194)
T2 sequence (O43194 1-453): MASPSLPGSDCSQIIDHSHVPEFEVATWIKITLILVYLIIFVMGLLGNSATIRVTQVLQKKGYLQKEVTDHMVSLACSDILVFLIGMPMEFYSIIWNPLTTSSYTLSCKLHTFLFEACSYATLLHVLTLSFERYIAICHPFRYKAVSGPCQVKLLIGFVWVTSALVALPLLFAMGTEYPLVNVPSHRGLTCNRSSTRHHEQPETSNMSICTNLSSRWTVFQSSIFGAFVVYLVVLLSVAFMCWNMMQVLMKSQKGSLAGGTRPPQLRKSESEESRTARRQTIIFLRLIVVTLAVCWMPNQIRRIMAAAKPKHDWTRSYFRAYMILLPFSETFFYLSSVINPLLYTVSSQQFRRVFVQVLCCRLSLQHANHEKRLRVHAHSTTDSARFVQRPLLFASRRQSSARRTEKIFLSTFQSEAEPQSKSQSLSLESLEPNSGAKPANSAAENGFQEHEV
Assay: luciferase assay system (SRE luciferase reporter gene, CV-1 cells expressing GPR39)
Assay type: cell-based
Set-up: expressed in transfected cells; host or cells: CV-1 fibroblast cell line (Korea Cell Line Bank), adenoviral transduction at 50 MOI

Row | Molecule | ECmax (−fold induction over basal) [fold induction over basal]
31 | CCCCCCCC(=O)NCCCC[C@H](NC(=O)[C@H](CO)NC(=O)CNC(=O)[C@@H](N)Cc1cn(C(c2ccccc2)(c2ccccc2)c2ccccc2)cn1)C(=O)N[C@@H](Cc1ccccc1)C(=O)N[C@@H](Cc1ccc(O)cc1)C(=O)O [HKFY-53, N6-octanoyl-N2-(Nt-trityl-L-histidylglycyl-L-seryl)-L-lysyl-L-phenylalanyl-L-tyrosine] (H-[His(Trt)]GSK(Octanoyl)FY-OH) | 8 ± 2.12
32 | CCCCCCCC(=O)NCCCC[C@H](NC(=O)[C@@H](N)Cc1cn(C(c2ccccc2)(c2ccccc2)c2ccccc2)cn1)C(=O)N[C@H](Cc1cccnc1)C(=O)N[C@@H](Cc1ccc(O)cc1)C(=O)O [HKFY-73, ((R)-2-((S)-2-((S)-2-amino-3-(1-trityl-1H-imidazol-4-yl)propanamido)-6-octanamidohexanamido)-3-(pyridin-3-yl)propanoyl)-L-tyrosine] (H-[His(Trt)]K(Octanoyl)[d3Pal]Y-OH) | 11.6 ± 2.3
33 | CCCCCCCC(=O)NCCCC[C@H](NC(=O)[C@@H](N)CC1=CN(CCc2ccccc2)CN1CCc1ccccc1)C(=O)N[C@@H](Cc1ccccc1)C(=O)N[C@@H](Cc1ccc(O)cc1)C(=O)O [HKFY-6, N2-((S)-2-amino-3-(1,3-diphenethyl-2,3-dihydro-1H-imidazol-4-yl)propanoyl)-N6-octanoyl-L-lysyl-L-phenylalanyl-L-tyrosine] | 15 ± 2.12
34 | CCCCCCCC(=O)NCCCC[C@H](NC(=O)[C@H](N)Cc1cn(C(c2ccccc2)(c2ccccc2)c2ccccc2)cn1)C(=O)N[C@H](Cc1ccc(C)cc1)C(=O)N[C@@H](Cc1ccc(O)cc1)C(=O)O [HKFY-31, ((R)-2-((S)-2-((R)-2-amino-3-(1-trityl-1H-imidazol-4-yl)propanamido)-6-octanamidohexanamido)-3-(p-tolyl)propanoyl)-L-tyrosine] (H-[dHis(Trt)]K(Octanoyl)[dPhe(4-Me)]Y-OH) | 20.9 ± 2.51
35 | CCCCCCCC(=O)NCCCC[C@H](NC(=O)[C@@H](N)Cc1cn(C(c2ccccc2)(c2ccccc2)c2ccccc2)cn1)C(=O)N[C@@H](Cc1ccc(O)cc1)C(=O)N[C@@H](Cc1ccccc1)C(=O)O [HKFY-47, N6-octanoyl-N2-(Nt-trityl-L-histidyl)-L-lysyl-L-tyrosyl-L-phenylalanine] (H-[His(Trt)]K(Octanoyl)YF-OH) | 13 ± 1.7
